# T1: recombinant human DLL3 (human, UniProt Q9NYJ7 27-492)
# T1 sequence: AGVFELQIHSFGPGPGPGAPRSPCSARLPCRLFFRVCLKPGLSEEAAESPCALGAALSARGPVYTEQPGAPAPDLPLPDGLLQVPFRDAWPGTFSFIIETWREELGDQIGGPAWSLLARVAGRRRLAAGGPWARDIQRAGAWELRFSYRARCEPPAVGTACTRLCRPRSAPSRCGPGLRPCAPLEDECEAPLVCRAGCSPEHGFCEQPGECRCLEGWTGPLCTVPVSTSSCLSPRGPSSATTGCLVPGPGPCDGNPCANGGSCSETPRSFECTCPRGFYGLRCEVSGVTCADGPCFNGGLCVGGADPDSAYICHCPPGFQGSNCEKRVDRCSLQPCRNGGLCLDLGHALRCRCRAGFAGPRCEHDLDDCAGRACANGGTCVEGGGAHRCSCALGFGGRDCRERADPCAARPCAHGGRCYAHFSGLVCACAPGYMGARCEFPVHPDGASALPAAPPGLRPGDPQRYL
# T2: Cynomolgus DLL3 ECD with Myc-tag on N-terminus and His-tag on C-terminus (cynomolgus)
# T2 construct: also called Myc-cynoDLL3-His; Cyno DLL3
# T2 chain: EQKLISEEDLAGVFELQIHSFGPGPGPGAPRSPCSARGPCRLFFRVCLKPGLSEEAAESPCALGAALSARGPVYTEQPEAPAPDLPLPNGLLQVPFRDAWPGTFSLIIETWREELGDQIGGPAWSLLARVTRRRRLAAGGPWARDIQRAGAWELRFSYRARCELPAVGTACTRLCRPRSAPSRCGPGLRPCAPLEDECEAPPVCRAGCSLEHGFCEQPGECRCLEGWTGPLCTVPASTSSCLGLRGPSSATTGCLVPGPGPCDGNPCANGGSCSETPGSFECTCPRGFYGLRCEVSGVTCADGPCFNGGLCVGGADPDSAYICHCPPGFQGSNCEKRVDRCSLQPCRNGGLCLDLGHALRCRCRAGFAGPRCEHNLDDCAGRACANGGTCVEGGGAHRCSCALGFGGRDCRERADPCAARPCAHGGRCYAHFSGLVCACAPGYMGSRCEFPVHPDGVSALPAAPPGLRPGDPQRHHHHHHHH
# Columns and labels:
# recombinant human DLL3 [1] = target: T1, recombinant human DLL3; test: Octet binning on SA sensor; Antibody A (biotinylated, loaded first): DL312-SG1; then 20 nM human DLL3, then 80 nM Antibody B
# Experimental: (§1) Octet (registered trademark) RED384 (Fortebio) was used to perform competitive binding assays by epitope binning for a panel of antibodies. A biotinylated antibody (DL301-SG1, DL306-SG1, DL309-SG1, DL312-SG1, D30316AE02-SG1, and D30841AE05-SG1) at 40 nM was first loaded to a streptavidin (SA) biosensor. Next, the sensor is exposed to 20 nM of human DLL3, followed by exposure to 80 nM of second antibody. The second antibodies are DL301-SG1, DL306-SG1, DL309-SG1, DL312-SG1, D30316AE02-SG1, D30841AE05-SG1, DLL3-14-SG1, DLL3-22-SG1, DLL3-4-SG1 and DLL3-6-SG1. Raw data was processed using ForteBio's Data Analysis Software 7.0 and the antibody pairs were assessed for competitive binding. Additional binding by the second antibody indicates an unoccupied epitope (non-competitor), while no binding indicates epitope blocking (competitor).
# (§2) The competition ratio of antibody B to antibody A was calculated using the following equation: Competition Ratio (Antibody B to Antibody A)=[Binding Response (Antibody B-Antigen)]/[Binding Response (Antigen-Antibody A)]
# recombinant human DLL3 [2] = target: T1, recombinant human DLL3; test: Octet binning on SA sensor; Antibody A (biotinylated, loaded first): D30316AE02-SG1; then 20 nM human DLL3, then 80 nM Antibody B
# Experimental: as §1, §2
# recombinant human DLL3 [3] = target: T1, recombinant human DLL3; test: Octet binning on SA sensor; Antibody A (biotinylated, loaded first): DL309-SG1; then 20 nM human DLL3, then 80 nM Antibody B
# Experimental: as §1, §2
# recombinant human DLL3 [4] = target: T1, recombinant human DLL3; test: Octet binning on SA sensor; Antibody A (biotinylated, loaded first): D30841AE05-SG1; then 20 nM human DLL3, then 80 nM Antibody B
# Experimental: as §1, §2
# recombinant human DLL3 [5] = target: T1, recombinant human DLL3; test: Octet binning on SA sensor; Antibody A (biotinylated, loaded first): DL306-SG1; then 20 nM human DLL3, then 80 nM Antibody B
# Experimental: as §1, §2
# recombinant human DLL3 [6] = target: T1, recombinant human DLL3; test: Octet binning on SA sensor; Antibody A (biotinylated, loaded first): DL301-SG1; then 20 nM human DLL3, then 80 nM Antibody B
# Experimental: as §1, §2
# recombinant human DLL3 [7] = target: T1, recombinant human DLL3; test: SPR Biacore 8K, 37 C, pH 7.4; bispecific captured on anti-human Fc, DLL3 as analyte, 1:1 model
# Experimental: (§3) Binding affinity of anti-DLL3 arm in the anti-DLL3/CD3 antibodies to human or cynomolgus DLL3 at pH 7.4 were assessed at 37 degrees C. using Biacore 8K instrument (GE Healthcare). Anti-human Fc (GE Healthcare) was immobilized onto all flow cells of a CM4 sensor chip using amine coupling kit (GE Healthcare). The bispecific antibodies were captured onto the anti-Fc sensor surfaces, and then recombinant human or cynomolgus DLL3 was injected over the flow cell. All antibodies and analytes were prepared in ACES pH 7.4 containing 20 mM ACES, 150 mM NaCl, 0.05% Tween 20, 0.005% NaN₃. Sensor surface was regenerated each cycle with 3M MgCl₂.
# [8] = target: T2, Cynomolgus DLL3 ECD with Myc-tag on …; test: as above
# Experimental: as §3
# [9] = target: recombinant human CD3eg protein (CD3 epsilon-gamma, heterodimer of CD3 epsilon and CD3 gamma) (human, UniProt P07766 23-126; P09693 23-116); test: SPR Biacore 8K, 37 C, pH 7.4; bispecific captured on anti-human Fc, human CD3eg as analyte, 1:1 model
# recombinant human CD3eg protein (CD3 epsilon-gamma, heterodimer of CD3 epsilon and CD3 gamma), sequence (P07766 23-126 limits assumed, chain 1 of 2): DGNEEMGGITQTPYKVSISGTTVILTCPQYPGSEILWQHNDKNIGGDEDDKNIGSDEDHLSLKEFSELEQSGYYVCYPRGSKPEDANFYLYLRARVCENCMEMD
# recombinant human CD3eg protein (CD3 epsilon-gamma, heterodimer of CD3 epsilon and CD3 gamma), sequence (P09693 23-116 limits assumed, chain 2 of 2): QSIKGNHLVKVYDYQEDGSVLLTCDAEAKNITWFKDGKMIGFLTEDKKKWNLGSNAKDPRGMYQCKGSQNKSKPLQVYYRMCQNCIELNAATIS
# Experimental: as §3, with “of the anti-CD3” for “of anti-DLL3”, “arm of” for “arm in”, “anti-DLL3/CD3 bispecific” for “anti-DLL3/CD3”, “to CD3” for “to human or cynomolgus DLL3”, “7.4 was” for “7.4 were”, “human CD3eg proteins (CD3 epsilon-gamma, heterodimer of CD3 epsilon and CD3 gamma)” for “human or cynomolgus DLL3”
Binder,competition ratio (Antibody B to Antibody A) (recombinant human DLL3 [1]),competition ratio (Antibody B to Antibody A) (recombinant human DLL3 [2]),competition ratio (Antibody B to Antibody A) (recombinant human DLL3 [3]),competition ratio (Antibody B to Antibody A) (recombinant human DLL3 [4]),competition ratio (Antibody B to Antibody A) (recombinant human DLL3 [5]),competition ratio (Antibody B to Antibody A) (recombinant human DLL3 [6]),Kd (recombinant human DLL3 [7]) [nM],koff (recombinant human DLL3 [7]) [s⁻¹],kon (recombinant human DLL3 [7]) [M⁻¹ s⁻¹],Kd [8] [nM],koff [8] [s⁻¹],kon [8] [M⁻¹ s⁻¹],Kd [9] [nM],koff [9] [s⁻¹],kon [9] [M⁻¹ s⁻¹]
"DLL3-6-SG1 (antibody, human IgG1, kappa, V domains shown, Variable regions of a previously reported anti-DLL3 antibody on SG1/SK1; Used as a second antibody only) VH: QVQLQESGPGLVKPSETLSLTCTVSGASISSFYWSWIRQPPGKGLEWIGYIYYSGTTNYNPSLKSRVTISVDTSKNQFSLKLSSVTAADTAVYYCARIAVAGFFFDYWGQGTLVTVSS VL: EIVLTQSPGTLSLSPGERATLSCRASQSVNKNYLAWYQQKPGQAPRLLIYGASSRATGIPDRFSGSGSGTDFTLTISRLEPEDFAVYYCQQYDRSPLTFGGGTKVEIKR",1.3,1.3,1,1.3,1.3,1.2,–,–,–,–,–,–,–,–,–
"DLL3-4-SG1 (antibody, human IgG1, kappa, V domains shown, Variable regions of a previously reported anti-DLL3 antibody on SG1/SK1; Used as a second antibody only) VH: QVQLQESGPGLVKPSETLSLTCTVSGGSISSYYWSWIRQPPGKGLEWIGYVYYSGTTNYNPSLKSRVTISVDTSKNQFSLKLSSVTAADTAVYYCASIAVTGFYFDYWGQGTLVTVSS VL: EIVLTQSPGTLSLSPGERVTLSCRASQRVNNNYLAWYQQRPGQAPRLLIYGASSRATGIPDRFSGSGSGTDFTLTISRLEPEDFAVYYCQQYDRSPLTFGGGTKLEIKR",1.3,1.3,1,1.3,1.3,1.2,–,–,–,–,–,–,–,–,–
"DL301-SG1 (antibody, human IgG1, kappa, V domains shown, Variable regions of a previously reported anti-DLL3 antibody on SG1/SK1; Also used biotin-labelled as a first antibody) VH: QVQLQQSGADLVRPGTSVKVSCKASGYAFTNYLIEWIKQRPGQGLEWIGVMNPGSGGTHYSEKFRGKATLTADKSSSTAYMQLISLTSDDSAVYFCARSDYDYVTYAMDYWGQGTSVTVSS VL: DIKMTQSPSSMYASLGERVTITCKASQDINSYLIWFQQKPGKSPKTLIYRTNRLVDGVPSRFSGSGSGQDYSLTISSLEYGDMGIYYCLQYDEFPFTFGSGTKLEIKR",1.3,1.3,1.2,1.3,1.3,-0.1,–,–,–,–,–,–,–,–,–
"D30316AE03/AN395 (bispecific antibody, V domains shown, IgG-type anti-DLL3/CD3 bispecific made by Fab arm exchange) VH 1: EVQLVESGGGLVQPGGSLRLSCAASGFTFSNYGVSWVRQAPGQGLEWMGYIDIAFGRTYYASWVTGRITINPDTSKNQFSLQLNSVTPEDTAVYYCARVALVVAGVAYYGMDVWGQGTLVTVSS VL 1: DIVMTQSPDSLAVSLGERATINCQASQNIYSYLSWYQQKPGKAPKLLIYRTSTLASGVPDRFSGSGSGTDFTLKISRVEAEDVGVYYCQSYYYSSGSSYGAFAFGQGTKVEIK VH 2: QVQLVESGGGLVQPGRSLRLSCAASGFTFSNAWMHWVRQAPGKGLEWVAQIKDKANGYNAYYAPSVKGRFTISRDDSKNSIYLQMNSLKTEDTAVYYCRYVHYTTFGFGLSYGGVDAWGQGTTVTVSS VL 2: DIVMTQSPLSLPVTPGEPASISCRSSQPLVHSNRNTYLHWYQQKPGQAPRLLIYKVSNRFSGVPDRFSGSGSGTDFTLKISRVEAEDVGVYYCGQGTQVPYTFGQGTKLEIK",–,–,–,–,–,–,–,–,–,–,–,–,30.7,0.00743,242000

# Continued, values first:
competition ratio (Antibody B to Antibody A) (recombinant human DLL3 [1]),competition ratio (Antibody B to Antibody A) (recombinant human DLL3 [2]),competition ratio (Antibody B to Antibody A) (recombinant human DLL3 [3]),competition ratio (Antibody B to Antibody A) (recombinant human DLL3 [4]),competition ratio (Antibody B to Antibody A) (recombinant human DLL3 [5]),competition ratio (Antibody B to Antibody A) (recombinant human DLL3 [6]),Kd (recombinant human DLL3 [7]) [nM],koff (recombinant human DLL3 [7]) [s⁻¹],kon (recombinant human DLL3 [7]) [M⁻¹ s⁻¹],Kd [8] [nM],koff [8] [s⁻¹],kon [8] [M⁻¹ s⁻¹],Kd [9] [nM],koff [9] [s⁻¹],kon [9] [M⁻¹ s⁻¹],Binder
1.3,1.3,0.9,1.3,1.3,1.2,–,–,–,–,–,–,–,–,–,"DLL3-22-SG1 (antibody, human IgG1, kappa, V domains shown, Variable regions of a previously reported anti-DLL3 antibody on SG1/SK1; Used as a second antibody only) VH: QVQLQESGPGLVKPSETLSLTCTVSGDSISSYYWTWIRQPPGKGLEWIGYIYYSGTTNYNPSLKSRVTISVDTSKSQFSLKLSSVTAADTAVYYCASIAVRGFFFDYWGQGTLVTVSS VL: not shown"
–,–,–,–,–,–,0.0261,6.11e-05,2.34e+06,0.0117,2.72e-05,2.32e+06,127,0.0169,134000,"D30316AE03/TR01 (bispecific antibody, V domains shown, IgG-type anti-DLL3/CD3 bispecific made by Fab arm exchange) VH 1: EVQLVESGGGLVQPGGSLRLSCAASGFTFSNYGVSWVRQAPGQGLEWMGYIDIAFGRTYYASWVTGRITINPDTSKNQFSLQLNSVTPEDTAVYYCARVALVVAGVAYYGMDVWGQGTLVTVSS VL 1: DIVMTQSPDSLAVSLGERATINCQASQNIYSYLSWYQQKPGKAPKLLIYRTSTLASGVPDRFSGSGSGTDFTLKISRVEAEDVGVYYCQSYYYSSGSSYGAFAFGQGTKVEIK VH 2: QVQLVESGGGVVQPGGSLRLSCAASGFTFSNAWMHWVRQAPGKGLEWVAQIKDKSQNYATYVAESVKGRFTISRADSKNSIYLQMNSLKTEDTAVYYCRYVHYAAGYGVDIWGQGTTVTVSS VL 2: DIVMTQSPLSLPVTPGEPASISCRSSQPLVHSNRNTYLHWYQQKPGQAPRLLIYKVSNRFSGVPDRFSGSGSGTDFTLKISRVEAEDVGVYYCGQGTQVPYTFGQGTKLEIK"

# — patent publication US20240150465A1 (Chugai, published 2024)
